{
  "source": "patent US20240011017A1",
  "about": "(Genentech, published 2024)",
  "binders": {"B1": {"name": "VZV protein gB, soluble (captured on beads or assayed directly in supernatants) (other)", "chain": "VSPSSFYESLQVEPTQSEDITRSAHLGDGDEIREAIHKSQDAETKPTFYVCPPPTGSTIVRLEPTRTCPDYHLGKNFTEGIAVVYKENIAAYKFKATVYYKDVIVSTAWAGSSYTQITNRYADRVPIPVSEITDTIDKFGKCSSKATYVRNNHKVEAFNEDKNPQDMPLIASKYNSVGSKAWHTTNDTYMVAGTPGTYRTGTSVNCIIEEVEARSIFPYDSFGLSTGDIIYMSPFFGLRDGAYREHSNYAMDRFHQFEGYRQRDLDTRALLEPAARNFLVTPHLTVGWNWKPKRTEVCSLVKWREVEDVVRDEYAHNFRFTMKTLSTTFISETNEFNLNQIHLSQCVKEEARAIINRIYTTRYNSSHVRTGDIQTYLARGGFVVVFQPLLSNSLARLYLQELVRENTNHSPQKHPTRNTRSRRSVPVELRANRTITTTSSVEFAMLQFTYDHIQEHVNEMLARISSSWCQLQNRERALWSGLFPINPSALASTILDQRVKARILGDVISVSNCPELGSDTRIILQNSMRVSGSTTRCYSRPLISIVSLNGSGTVEGQLGTDNELIMSRDLLEPCVANHKRYFLFGHHYVYYEDYRYVREIAVHDVGMISTYVDLNLTLLKDREFMPLQVYTRDELRDTGLLDYSEIQRRNQMHSLRFYDIDKVVQYDSGTAIMQGMAQFFQGLGTAGQAVGHVVLGATGALLSTVHGFTTFLSNP", "notes": "also called VZV gB"}},
  "key": {"[1]": {"biological_target": "T1, HHV8 protein KCP expressed on cells (gD-GPI construct or full-length protein) (Human herpesvirus 8, UniProt Q2HRD4 20-522)", "T1 construct": "also called HHV8 KCP", "T1 sequence": "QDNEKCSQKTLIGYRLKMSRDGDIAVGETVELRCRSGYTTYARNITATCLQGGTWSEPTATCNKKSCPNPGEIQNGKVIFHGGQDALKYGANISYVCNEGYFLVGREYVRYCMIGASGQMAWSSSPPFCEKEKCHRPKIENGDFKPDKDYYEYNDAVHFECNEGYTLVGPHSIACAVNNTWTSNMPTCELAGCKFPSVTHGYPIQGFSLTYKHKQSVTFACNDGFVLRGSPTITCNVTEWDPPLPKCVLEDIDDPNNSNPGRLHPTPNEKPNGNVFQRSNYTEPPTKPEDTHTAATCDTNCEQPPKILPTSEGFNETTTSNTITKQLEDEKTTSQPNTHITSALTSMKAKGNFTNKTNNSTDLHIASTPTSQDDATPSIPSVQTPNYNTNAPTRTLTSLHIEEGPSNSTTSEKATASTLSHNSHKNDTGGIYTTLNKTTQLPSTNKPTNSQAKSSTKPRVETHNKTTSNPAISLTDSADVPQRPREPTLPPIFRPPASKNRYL", "assay": "cell-based immunofluorescence validation (FIG. 17): receptor in supernatants, KCP on cells"}, "[2]": {"biological_target": "B1", "assay": "cell-based immunofluorescence validation (FIG. 16): gB on beads or in supernatants, HAVCR1 on cells"}, "[3]": {"biological_target": "T2, MUSK expressed on cells (gD-GPI construct or full-length protein) (human, UniProt O15146 24-869)", "T2 construct": "whole, on cells", "T2 sequence": "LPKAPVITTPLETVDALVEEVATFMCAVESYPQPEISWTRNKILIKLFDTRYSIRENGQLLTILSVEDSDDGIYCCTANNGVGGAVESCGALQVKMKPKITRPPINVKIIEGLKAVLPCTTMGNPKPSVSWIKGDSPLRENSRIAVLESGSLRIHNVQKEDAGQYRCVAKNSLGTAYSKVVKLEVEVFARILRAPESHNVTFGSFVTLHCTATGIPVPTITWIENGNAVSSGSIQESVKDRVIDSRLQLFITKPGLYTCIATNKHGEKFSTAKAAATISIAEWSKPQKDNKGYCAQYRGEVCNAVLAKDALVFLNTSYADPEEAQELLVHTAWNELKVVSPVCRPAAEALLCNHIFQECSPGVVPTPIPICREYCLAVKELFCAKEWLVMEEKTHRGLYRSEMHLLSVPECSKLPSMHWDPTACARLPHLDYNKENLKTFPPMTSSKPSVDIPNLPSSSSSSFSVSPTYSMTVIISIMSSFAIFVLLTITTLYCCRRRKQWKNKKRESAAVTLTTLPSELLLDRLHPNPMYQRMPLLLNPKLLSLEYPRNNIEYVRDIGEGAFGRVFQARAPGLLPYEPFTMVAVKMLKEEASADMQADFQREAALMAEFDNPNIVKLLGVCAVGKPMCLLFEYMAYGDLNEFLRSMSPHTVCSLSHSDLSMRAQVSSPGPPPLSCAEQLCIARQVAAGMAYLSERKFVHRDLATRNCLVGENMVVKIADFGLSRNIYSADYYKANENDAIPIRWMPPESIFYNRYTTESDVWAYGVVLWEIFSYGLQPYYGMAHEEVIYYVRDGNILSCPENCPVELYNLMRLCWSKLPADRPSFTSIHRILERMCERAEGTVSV", "assay": "cell-based immunofluorescence validation (FIG. 15): gB on beads or in supernatants, MUSK on cells"}, "[4]": {"biological_target": "T3, VZV protein gC, soluble (captured on beads or assayed directly in supernatants) (Varicella zoster virus, UniProt P09256 54-559)", "T3 construct": "also called VZV gC", "T3 sequence": "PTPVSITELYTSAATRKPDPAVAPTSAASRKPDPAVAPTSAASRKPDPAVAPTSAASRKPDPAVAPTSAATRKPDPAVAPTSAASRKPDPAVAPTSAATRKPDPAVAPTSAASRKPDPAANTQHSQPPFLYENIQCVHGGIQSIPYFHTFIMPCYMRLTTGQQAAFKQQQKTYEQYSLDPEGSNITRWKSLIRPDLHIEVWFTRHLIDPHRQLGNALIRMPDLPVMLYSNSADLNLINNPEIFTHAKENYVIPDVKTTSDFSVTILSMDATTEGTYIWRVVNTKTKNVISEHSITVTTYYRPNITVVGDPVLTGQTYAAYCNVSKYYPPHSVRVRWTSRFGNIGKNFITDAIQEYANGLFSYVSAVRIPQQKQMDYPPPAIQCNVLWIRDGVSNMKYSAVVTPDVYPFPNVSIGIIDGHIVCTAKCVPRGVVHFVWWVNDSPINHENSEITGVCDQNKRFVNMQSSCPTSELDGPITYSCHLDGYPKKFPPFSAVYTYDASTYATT", "assay": "cell-based immunofluorescence validation (FIGS. 14B and 22): soluble gC on cells with ICAM1"}},
  "data": [
    {"binder": "FLRT3 (in supernatants) (receptor) KSCPSVCRCDAGFIYCNDRFLTSIPTGIPEDATTLYLQNNQINNAGIPSDLKNLLKVERIYLYHNSLDEFPTNLPKYVKELHLQENNIRTITYDSLSKIPYLEELHLDDNSVSAVSIEEGAFRDSNYLRLLFLSRNHLSTIPWGLPRTIEELRLDDNRISTISSPSLQGLTSLKRLVLDGNLLNNHGLGDKVFFNLVNLTELSLVRNSLTAAPVNLPGTNLRKLYLQDNHINRVPPNAFSYLRQLYRLDMSNNNLSNLPQGIFDDLDNITQLILRNNPWYCGCKMKWVRDWLQSLPVKVNVRGLMCQAPEKVRGMAIKDLNAELFDCKDSGIVSTIQITTAIPNTVYPAQGQWPAPVTKQPDIKNPKLTKDHQTTGSPSRKTITITVKSVTSDTIHISWKLALPMTALRLSWLKLGHSPAFGSITETIVTGERSEYLVTALEPDSPYKVCMVPMETSNLYLFDETPVCIETETAPLRMYNPTTTLNREQEKEPYKNPNLP", "values": [
      {"measurement": "binding result", "setting": "[1]", "result": "binds"}
    ]},
    {"binder": "HAVCR1 expressed on cells (gD-GPI construct or full-length protein) (receptor, whole, on cells) SVKVGGEAGPSVTLPCHYSGAVTSMCWNRGSCSLFTCQNGIVWTNGTHVTYRKDTRYKLLGDLSRRDVSLTIENTAVSDSGVYCCRVEHRGWFNDMKITVSLEIVPPKVTTTPIVTTVPTVTTVRTSTTVPTTTTVPMTTVPTTTVPTTMSIPTTTTVLTTMTVSTTTSVPTTTSIPTTTSVPVTTTVSTFVPPMPLPRQNHEPVATSPSSPQPAETHPTTLQGAIRREPTSSPLYSYTTDGNDTVTESSDGLWNNNQTQLFLEHSLLTANTTKGIYAGVCISVLVLLALLGVIIAKKYFFKKEVQQLSVSFSSLQIKALQNAVEKEVQAEDNIYIENSLYATD", "values": [
      {"measurement": "binding result", "setting": "[2]", "result": "binds"}
    ]},
    {"binder": "B1", "values": [
      {"measurement": "binding result", "setting": "[3]", "result": "binds"}
    ]},
    {"binder": "LILRB1 (in supernatants) (receptor) GHLPKPTLWAEPGSVITQGSPVTLRCQGGQETQEYRLYREKKTALWITRIPQELVKKGQFPIPSITWEHAGRYRCYYGSDTAGRSESSDPLELVVTGAYIKPTLSAQPSPVVNSGGNVILQCDSQVAFDGFSLCKEGEDEHPQCLNSQPHARGSSRAIFSVGPVSPSRRWWYRCYAYDSNSPYEWSLPSDLLELLVLGVSKKPSLSVQPGPIVAPEETLTLQCGSDAGYNRFVLYKDGERDFLQLAGAQPQAGLSQANFTLGPVSRSYGGQYRCYGAHNLSSEWSAPSDPLDILIAGQFYDRVSLSVQPGPTVASGENVTLLCQSQGWMQTFLLTKEGAADDPWRLRSTYQSQKYQAEFPMGPVTSAHAGTYRCYGSQSSKPYLLTHPSDPLELVVSGPSGGPSSPTTGPTSTSGPEDQPLTPTGSDPQSGLGRHLGV", "values": [
      {"measurement": "binding result", "setting": "[1]", "result": "binds"}
    ]},
    {"binder": "ICAM1 expressed on cells (gD-GPI construct or full-length protein) (receptor, whole, on cells) QTSVSPSKVILPRGGSVLVTCSTSCDQPKLLGIETPLPKKELLLPGNNRKVYELSNVQEDSQPMCYSNCPDGQSTAKTFLTVYWTPERVELAPLPSWQPVGKNLTLRCQVEGGAPRANLTVVLLRGEKELKREPAVGEPAEVTTTVLVRRDHHGANFSCRTELDLRPQGLELFENTSAPYQLQTFVLPATPPQLVSPRVLEVDTQGTVVCSLDGLFPVSEAQVHLALGDQRLNPTVTYGNDSFSAKASVSVTAEDEGTQRLTCAVILGNQSQETLQTVTIYSFPAPNVILTKPEVSEGTEVTVKCEAHPRAKVTLNGVPAQPLGPRAQLLLKATPEDNGRSFSCSATLEVAGQLIHKNQTRELRVLYGPRLDERDCPGNWTWPENSQQTPMCQAWGNPLPELKCLKDGTFPLPIGESVTVTRDLEGTYLCRARSTQGEVTRKVTVNVLSPRYEIVIITVVAAAVIMGTAGLSTYLYNRQRKIKKYRLQQAQKGTPMKPNTQATPP", "values": [
      {"measurement": "binding result", "setting": "[4]", "result": "binds"}
    ]}
  ]
}
